Experiments:
Conditions in all cases: Enterobacter cloacae
[1] = substrate: CC1(C)S[C@@H]2[C@H](NC(=O)Cc3ccccc3)C(=O)N2[C@H]1C(=O)O
Description: (§1) Activity of Enterobacter cloacae 908R AmpC assessed as drug hydrolysis by spectrophotometry

[2] = substrate: Nc1nc(/C(=N/O)C(=O)N[C@@H]2C(=O)N3C(C(=O)O)=C(/C=C4\CCN([C@@H]5CCNC5)C4=O)CS[C@H]23)ns1
Description: as §1

[3] = substrate: CC(C)(O/N=C(\C(=O)N[C@@H]1C(=O)N2C(C(=O)[O-])=C(C[n+]3ccccc3)CS[C@H]12)c1csc(N)n1)C(=O)O
Description: as §1

[4] = substrate: CO/N=C(\C(=O)N[C@@H]1C(=O)N2C(C(=O)[O-])=C(C[N+]3(C)CCCC3)CS[C@H]12)c1csc(N)n1
Description: as §1

[5] = substrate: O=C(Cc1cccs1)N[C@@H]1C(=O)N2C(C(=O)[O-])=C(C[n+]3ccccc3)CS[C@H]12
Description: as §1

[6] = substrate: CC1(C)S[C@@H]2[C@H](NC(=O)Cc3ccccc3)C(=O)N2[C@H]1C(=O)O; remark: listed apart in the source
Description: (§2) Activity of Enterobacter cloacae 4080 AmpC (P99) assessed as drug hydrolysis by spectrophotometry

[7] = substrate: Nc1nc(/C(=N/O)C(=O)N[C@@H]2C(=O)N3C(C(=O)O)=C(/C=C4\CCN([C@@H]5CCNC5)C4=O)CS[C@H]23)ns1; remark: listed apart in the source
Description: as §2

[8] = substrate: CC(C)(O/N=C(\C(=O)N[C@@H]1C(=O)N2C(C(=O)[O-])=C(C[n+]3ccccc3)CS[C@H]12)c1csc(N)n1)C(=O)O; remark: listed apart in the source
Description: as §2

[9] = substrate: O=C(Cc1cccs1)N[C@@H]1C(=O)N2C(C(=O)[O-])=C(C[n+]3ccccc3)CS[C@H]12; remark: listed apart in the source
Description: as §2

[10] = substrate: CC1(C)S[C@@H]2[C@H](NC(=O)Cc3ccccc3)C(=O)N2[C@H]1C(=O)O; remark: listed apart in the source
Description: (§3) Ratio of Kcat to Km of Enterobacter cloacae 4080 AmpC (P99) assessed as drug hydrolysis by spectrophotometry

[11] = substrate: Nc1nc(/C(=N/O)C(=O)N[C@@H]2C(=O)N3C(C(=O)O)=C(/C=C4\CCN([C@@H]5CCNC5)C4=O)CS[C@H]23)ns1; remark: listed apart in the source
Description: as §3

[12] = substrate: CC(C)(O/N=C(\C(=O)N[C@@H]1C(=O)N2C(C(=O)[O-])=C(C[n+]3ccccc3)CS[C@H]12)c1csc(N)n1)C(=O)O; remark: listed apart in the source
Description: as §3

[13] = substrate: CO/N=C(\C(=O)N[C@@H]1C(=O)N2C(C(=O)[O-])=C(C[N+]3(C)CCCC3)CS[C@H]12)c1csc(N)n1; remark: listed apart in the source
Description: as §3

[14] = substrate: O=C(Cc1cccs1)N[C@@H]1C(=O)N2C(C(=O)[O-])=C(C[n+]3ccccc3)CS[C@H]12; remark: listed apart in the source
Description: as §3

[15] = substrate: CC1(C)S[C@@H]2[C@H](NC(=O)Cc3ccccc3)C(=O)N2[C@H]1C(=O)O; remark: listed apart in the source
Description: (§4) Ratio of Kcat to Km of Enterobacter cloacae 908R AmpC assessed as drug hydrolysis by spectrophotometry

[16] = substrate: Nc1nc(/C(=N/O)C(=O)N[C@@H]2C(=O)N3C(C(=O)O)=C(/C=C4\CCN([C@@H]5CCNC5)C4=O)CS[C@H]23)ns1; remark: listed apart in the source
Description: as §4

[17] = substrate: CC(C)(O/N=C(\C(=O)N[C@@H]1C(=O)N2C(C(=O)[O-])=C(C[n+]3ccccc3)CS[C@H]12)c1csc(N)n1)C(=O)O; remark: listed apart in the source
Description: as §4

[18] = substrate: CO/N=C(\C(=O)N[C@@H]1C(=O)N2C(C(=O)[O-])=C(C[N+]3(C)CCCC3)CS[C@H]12)c1csc(N)n1; remark: listed apart in the source
Description: as §4

[19] = substrate: O=C(Cc1cccs1)N[C@@H]1C(=O)N2C(C(=O)[O-])=C(C[n+]3ccccc3)CS[C@H]12; remark: listed apart in the source
Description: as §4

[20] = substrate: CC1(C)S[C@@H]2[C@H](NC(=O)Cc3ccccc3)C(=O)N2[C@H]1C(=O)O; remark: listed apart in the source
Description: (§5) Ratio of Kcat to Km of Enterobacter cloacae 4092 AmpC (E2) assessed as drug hydrolysis by spectrophotometry

[21] = substrate: Nc1nc(/C(=N/O)C(=O)N[C@@H]2C(=O)N3C(C(=O)O)=C(/C=C4\CCN([C@@H]5CCNC5)C4=O)CS[C@H]23)ns1; remark: listed apart in the source
Description: as §5

[22] = substrate: CC(C)(O/N=C(\C(=O)N[C@@H]1C(=O)N2C(C(=O)[O-])=C(C[n+]3ccccc3)CS[C@H]12)c1csc(N)n1)C(=O)O; remark: listed apart in the source
Description: as §5

[23] = substrate: CO/N=C(\C(=O)N[C@@H]1C(=O)N2C(C(=O)[O-])=C(C[N+]3(C)CCCC3)CS[C@H]12)c1csc(N)n1; remark: listed apart in the source
Description: as §5

[24] = substrate: O=C(Cc1cccs1)N[C@@H]1C(=O)N2C(C(=O)[O-])=C(C[n+]3ccccc3)CS[C@H]12; remark: listed apart in the source
Description: as §5

[25] = substrate: O=C(Cc1cccs1)N[C@@H]1C(=O)N2C(C(=O)O)=C(/C=C/c3ccc([N+](=O)[O-])cc3[N+](=O)[O-])CS[C@H]12
Description: as §5

B1: Beta-lactamase (Enterobacter cloacae), P05364 (protein)
chain: MMRKSLCCALLLGISCSALATPVSEKQLAEVVANTITPLMKAQSVPGMAVAVIYQGKPHYYTFGKADIAANKPVTPQTLFELGSISKTFTGVLGGDAIARGEISLDDAVTRYWPQLTGKQWQGIRMLDLATYTAGGLPLQVPDEVTDNASLLRFYQNWQPQWKPGTTRLYANASIGLFGALAVKPSGMPYEQAMTTRVLKPLKLDHTWINVPKAEEAHYAWGYRDGKAVRVSPGMLDAQAYGVKTNVQDMANWVMANMAPENVADASLKQGIALAQSRYWRIGSMYQGLGWEMLNWPVEANTVVEGSDSKVALAPLPVAEVNPPAPPVKASWVHKTGSTGGFGSYVAFIPEKQIGIVMLANTSYPNPARVEAAYHILEALQ
- Km [1]: 6 µM
- kcat [1]: 53 s⁻¹
- Km [2]: 12 µM
- kcat [2]: 0.45 s⁻¹
- Km [3]: 3.5 µM
- kcat [3]: 2.3 s⁻¹
- Km [4]: 16 µM
- kcat [4]: 0.82 s⁻¹
- Km [5]: 360 µM
- kcat [5]: 3200 s⁻¹
- Km [6]: 4.7 µM
- kcat [6]: 32 s⁻¹
- Km [7]: 9.4 µM
- kcat [7]: 0.21 s⁻¹
- Km [8]: 2.9 µM
- kcat [8]: 0.021 s⁻¹
- Km [9]: 330 µM
- kcat [9]: 2500 s⁻¹
- kcat/Km [10]: 6.8e+06 M⁻¹ s⁻¹
- kcat/Km [11]: 22000 M⁻¹ s⁻¹
- kcat/Km [12]: 7200 M⁻¹ s⁻¹
- kcat/Km [13]: 4000 M⁻¹ s⁻¹
- kcat/Km [14]: 7.6e+06 M⁻¹ s⁻¹
- kcat/Km [15]: 8.8e+06 M⁻¹ s⁻¹
- kcat/Km [16]: 38000 M⁻¹ s⁻¹
- kcat/Km [17]: 660000 M⁻¹ s⁻¹
- kcat/Km [18]: 75000 M⁻¹ s⁻¹
- kcat/Km [19]: 8.9e+06 M⁻¹ s⁻¹
- kcat/Km [20]: 7.8e+06 M⁻¹ s⁻¹
- kcat/Km [21]: < 2200 M⁻¹ s⁻¹
- kcat/Km [22]: 1500 M⁻¹ s⁻¹
- kcat/Km [23]: < 33 M⁻¹ s⁻¹
- kcat/Km [24]: 1.5e+06 M⁻¹ s⁻¹
- kcat/Km [25]: 1e+07 M⁻¹ s⁻¹
